These results are taken from PMC3308694 (The Journal of Cell Biology, 2012).

The data set deals with the molecule itself. As to the kind of experiment: SEC. A general note: Size exclusion chromatography separates by hydrodynamic size, large species first.

B1: CC^95–303 with the E191A + K192A mutation (domain or fragment, S. cerevisiae, UniProt Q00402 95-303, looked up)
chain: KDMNFTLELSENLLVECRKLQSSNEAKNEQIKSLKQIKESLSDKIEELTNQKKSFMKELDSTKDLNWDLESKLTNLSMECRQLKELKKKTEKSWNDAAESLKLLKTDLEILTLTKNGMENDLSSQKLHYDKEISELKERILDLNNENDRLLISVSDLTSEINSLQSNRTERIKIQKQLDDAKASISSLKRKVQKKYYQKQHTSDTTVTS
Turning to B1, the binding result was “binds”.
